Measurements as given in article PMC2987445 (Cancer biology & therapy, 2010).

Assays:
[1] = system: Akt signaling (pAkt, S6 protein, 4EBP-1) in LNCaP and T47D cells; test: Western blot of Akt pathway phosphorylation in LNCaP and T47D cells; conditions: 3 hrs
Akt1 = Akt1 (Mus musculus, UniProt P31750); test: Ex vivo IP-kinase assay of Akt1 in mouse tissues; conditions: exogenous insulin ip
Akt3 = Akt3 (Mus musculus, UniProt Q9WUA6); test: Ex vivo IP-kinase assay of Akt3 in mouse tissues; conditions: exogenous insulin ip (1 or 5 μg)
Akt3, sequence (Q9WUA6 whole entry): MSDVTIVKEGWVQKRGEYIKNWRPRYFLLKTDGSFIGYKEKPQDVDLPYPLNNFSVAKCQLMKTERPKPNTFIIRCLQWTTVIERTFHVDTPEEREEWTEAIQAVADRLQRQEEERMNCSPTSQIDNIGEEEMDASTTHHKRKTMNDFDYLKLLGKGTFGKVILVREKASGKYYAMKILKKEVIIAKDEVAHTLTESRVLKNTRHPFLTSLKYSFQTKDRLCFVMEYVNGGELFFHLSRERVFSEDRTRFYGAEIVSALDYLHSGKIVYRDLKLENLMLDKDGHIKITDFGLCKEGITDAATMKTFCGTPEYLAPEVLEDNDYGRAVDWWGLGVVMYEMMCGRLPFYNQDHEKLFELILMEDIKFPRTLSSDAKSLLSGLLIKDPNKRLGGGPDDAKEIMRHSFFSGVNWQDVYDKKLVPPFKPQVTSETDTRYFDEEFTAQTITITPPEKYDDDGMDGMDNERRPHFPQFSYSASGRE

[2] = Blood glucose in nude mice; format: in vivo, mouse; conditions: 40 μg insulin ip in animals treated with 100 mpk AKTi
[3] = Plasma insulin in nude mice; conditions: 30 min after injection; for plasma insulin levels increase: no AKTi

Akt1, sequence (P31750 whole entry): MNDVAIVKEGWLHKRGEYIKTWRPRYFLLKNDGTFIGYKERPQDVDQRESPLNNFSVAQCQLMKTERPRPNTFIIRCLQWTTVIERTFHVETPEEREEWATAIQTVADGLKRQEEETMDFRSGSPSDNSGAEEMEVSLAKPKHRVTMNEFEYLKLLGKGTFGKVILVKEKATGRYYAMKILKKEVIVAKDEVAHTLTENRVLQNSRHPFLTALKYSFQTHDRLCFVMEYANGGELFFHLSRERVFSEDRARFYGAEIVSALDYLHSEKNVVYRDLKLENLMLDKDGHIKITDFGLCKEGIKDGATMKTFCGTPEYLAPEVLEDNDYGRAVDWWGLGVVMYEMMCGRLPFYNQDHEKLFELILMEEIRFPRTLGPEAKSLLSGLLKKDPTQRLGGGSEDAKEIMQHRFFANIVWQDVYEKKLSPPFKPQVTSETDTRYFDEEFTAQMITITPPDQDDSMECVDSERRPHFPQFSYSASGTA

| Compound | blocking phosphorylation of S6 protein and 4EBP-1 [1] | hyper-phosphorylation of Akt [1] | induction of Akt1 activity in liver (Akt1) [fold] | maximal increase of Akt3 activity in lung (Akt3) [%] | effect on glucose levels [2] | plasma insulin levels increase ([3]; 1 μg insulin ip) | plasma insulin levels increase ([3]; 5 μg insulin ip) [fold] | Insulin, plasma ([3]; insulin 5.0 μg per mouse ip) [ng/mL] |
| --- | --- | --- | --- | --- | --- | --- | --- | --- |
| Cc1n[nH]c2ccc(-c3cncc(OC[C@@H](N)Cc4c[nH]c5ccccc45)c3)cc12 [A443654] | equally effective at blocking phosphorylation | feed-back hyper-phosphorylation | – | – | – | – | – | – |
| Insulin: Recombinant insulin obtained from Invitrogen, injected intraperitoneally | – | – | ~10 | 40 | only a minor effect on glucose levels | about 20 fold | ~100 | 77 ± 21 |
